# Paper PMC8385704 (2021)
# Target: His-tagged recombinant human ACE2 protein (residues 19-740), dimeric (human, UniProt Q9BYF1 19-740)
# Assay: BLI
# Sequence of His-tagged recombinant human ACE2 protein (residues 19-740), dimeric (Q9BYF1 19-740): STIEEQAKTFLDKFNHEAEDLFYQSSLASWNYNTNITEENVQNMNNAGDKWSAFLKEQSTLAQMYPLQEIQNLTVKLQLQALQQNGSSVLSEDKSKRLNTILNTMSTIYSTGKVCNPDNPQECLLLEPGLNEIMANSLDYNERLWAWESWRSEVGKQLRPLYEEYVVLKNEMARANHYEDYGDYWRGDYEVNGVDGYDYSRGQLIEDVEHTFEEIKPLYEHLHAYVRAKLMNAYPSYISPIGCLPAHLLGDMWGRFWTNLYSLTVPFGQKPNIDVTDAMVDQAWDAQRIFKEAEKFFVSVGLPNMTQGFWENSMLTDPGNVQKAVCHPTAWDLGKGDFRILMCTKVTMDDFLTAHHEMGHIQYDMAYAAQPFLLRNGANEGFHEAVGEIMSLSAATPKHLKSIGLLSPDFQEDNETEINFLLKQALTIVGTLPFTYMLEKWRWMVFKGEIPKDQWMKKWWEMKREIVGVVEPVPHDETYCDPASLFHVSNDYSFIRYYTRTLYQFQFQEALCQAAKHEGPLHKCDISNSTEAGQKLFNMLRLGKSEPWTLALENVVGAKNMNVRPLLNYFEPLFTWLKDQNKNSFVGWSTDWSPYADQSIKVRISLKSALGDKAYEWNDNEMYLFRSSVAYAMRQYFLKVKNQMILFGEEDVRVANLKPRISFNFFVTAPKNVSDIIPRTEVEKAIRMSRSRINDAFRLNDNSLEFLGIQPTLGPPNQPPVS
binder,measurement,value
"monoclonal antibody 3E8 (antibody, V domains shown) VH: EVQLEESGAELVRPGASVKISCKAFGYTFTNHHINWMKQRPGQGLDWIGYVNPYNDYTKYSQNFKGKATLSVDRSSSTAYMELSSLTSEDSAVYYCARWRDYDRDWYFDVWGAGTTVIVSS VL: DIVMTQSPATLSVTPGDRVSLSCRASQSIRDYLYWYQQKSHESPRLLIKYASQSISGIPSRFSGSGSGSDFTLSINSVEPEDVGVYYCQNGHSFPYTFGGGTKLEIK",koff,0.000278 s⁻¹
